Results published in patent publication US8927500.
Where “and” joins values, the source holds several entries; their conditions need not be identical. Identical values can stand only once.

Biological target: MDM2 (In-house, 41 kD) (UniProt Q00987)
Assay: competitive fluorescence polarization, MDM2 with FAM-labeled linear peptide; graded scale of paragraph 458

Sequence of MDM2 (In-house, 41 kD) (Q00987 1-138 limits assumed): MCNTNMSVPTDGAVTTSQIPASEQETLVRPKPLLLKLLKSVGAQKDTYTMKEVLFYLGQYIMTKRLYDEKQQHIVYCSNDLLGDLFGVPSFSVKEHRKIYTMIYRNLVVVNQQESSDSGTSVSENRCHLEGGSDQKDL

Row | Substance | IC50
1 | peptidomimetic macrocycle SP752, Ac-t$r5wya$r5f4CF3ekllr-NH2 (peptide) | > 100 nM and < 1000 nM
2 | peptidomimetic macrocycle SP756, Ac-t$s8wyanf4CF3e$r5llr-NH2 (peptide) | > 10 nM and < 100 nM
3 | peptidomimetic macrocycle SP758, Ac-tawya$s8f4CF3ekllr$r5a-NH2 (peptide) | > 10 nM and < 100 nM
4 | peptidomimetic macrocycle SP755, Ac-tawyanf4CF3e$r5llr$r5a-NH2 (peptide) | < 10 nM
5 | peptidomimetic macrocycle SP757, Ac-tawy$s8nf4CF3ekll$r5a-NH2 (peptide) | < 10 nM
6 | peptidomimetic macrocycle SP753, Ac-tawy$r5nf4CF3e$r5llr-NH2 (peptide) | > 10 nM and < 100 nM
7 | peptidomimetic macrocycle SP754, Ac-tawya$r5f4CF3ek$r5lr-NH2 (peptide) | > 100 nM and < 1000 nM
